As a reminder, the Kd is the free concentration of one partner at which half of the binding sites on the other are occupied at equilibrium, for simple one-to-one binding. Lower therefore signals a tighter complex.

Test [1] addresses T1, cMET extracellular domain (human, UniProt P08581 25-932).
T1 construct: extracellular domain; also called human c-MET
Kind of test: Octet BLI, protein A biosensors, extracellular domain as antigen. The procedure:
(§1) The affinity of BxM wildtype and MaB40 was analysed using an Octet system with biosensors coated with protein A. As antigens, the extracellular domains of cMET and EGFR were used. Three different concentrations of antibody were tested to determine the affinity.
On the technique in general: In BLI a coated tip is dipped into the sample, and binding shifts an interference pattern.

Test [2] deals with T2, EGFR extracellular domain (human, UniProt P00533 25-645).
T2 construct: extracellular domain; also called human EGFR; epidermal growth factor receptor
Described as above. The protocol: as §1

B1: BxM wt (B10v5 x hu225M SEED bispecific IgG without interface mutations) (bispecific antibody)
heavy 1: not shown
light 1: EPVLTQPPSVSVAPGETATIPCGGDSLGSKIVHWYQQRPGQAPLLVVYDDAARPSGIPERFSGSKSGTTATLTISSVEAGDEADYFCQVYDYHSDVEVFGGGTKLTVLGQPKAAPSVTLFPPSSEELQANKATLVCLISDFYPGAVTVAWKADSSPVKAGVETTTPSKQSNNKYAASSYLSLTPEQWKSHKSYSCQVTHEGSTVEKTVAPTECS
heavy 2: EVQLVQSGAEVKKPGASVKVSCKASGFSLTNYGVHWMRQAPGQGLEWIGVIWSGGNTDYNTPFTSRVTITSDKSTSTAYMELSSLRSEDTAVYYCARALTYYDYEFAYWGQGTLVTVSSASTKGPSVFPLAPSSKSTSGGTAALGCLVKDYFPEPVTVSWNSGALTSGVHTFPAVLQSSGLYSLSSVVTVPSSSLGTQTYICNVNHKPSNTKVDKKVEPKSCDKTHTCPPCPAPELLGGPSVFLFPPKPKDTLMISRTPEVTCVVVDVSHEDPEVKFNWYVDGVEVHNAKTKPREEQYNSTYRVVSVLTVLHQDWLNGKEYKCKVSNKALPAPIEKTISKAKGQPREPQVYTLPPPSEELALNELVTLTCLVKGFYPSDIAVEWLQGSQELPREKYLTWAPVLDSDGSFFLYSILRVAAEDWKKGDTFSCSVMHEALHNHYTQKSLDRSPGK
light 2: DIQMTQSPSSLSASVGDRVTITCRASQSIGTNIHWYQQKPGKAPKLLIKYASESISGVPSRFSGSGYGTDFTLTISSLQPEDVATYYCQQNYNWPTTFGQGTKVEIKRTVAAPSVFIFPPSDEQLKSGTASVVCLLNNFYPREAKVQWKVDNALQSGNSQESVTEQDSKDSTYSLSSTLTLSKADYEKHKVYACEVTHQGLSSPVTKSFNRGEC
notes: By LC-ESI-MS the preparation held only 76% of the correctly paired form (12% + 12% light chain mispaired variants); also called BxM wildtype
Take B1: the Kd was 0.35 nM in test [1] and 5.3 nM in test [2].

B2: BxM MaB40 (B10v5 x hu225M SEED bispecific IgG with K26D in CH1 and T18R in CL of hu225M) (bispecific antibody)
heavy 1: not shown
light 1: EPVLTQPPSVSVAPGETATIPCGGDSLGSKIVHWYQQRPGQAPLLVVYDDAARPSGIPERFSGSKSGTTATLTISSVEAGDEADYFCQVYDYHSDVEVFGGGTKLTVLGQPKAAPSVTLFPPSSEELQANKATLVCLISDFYPGAVTVAWKADSSPVKAGVETTTPSKQSNNKYAASSYLSLTPEQWKSHKSYSCQVTHEGSTVEKTVAPTECS
heavy 2: EVQLVQSGAEVKKPGASVKVSCKASGFSLTNYGVHWMRQAPGQGLEWIGVIWSGGNTDYNTPFTSRVTITSDKSTSTAYMELSSLRSEDTAVYYCARALTYYDYEFAYWGQGTLVTVSSASTKGPSVFPLAPSSKSTSGGTAALGCLVDDYFPEPVTVSWNSGALTSGVHTFPAVLQSSGLYSLSSVVTVPSSSLGTQTYICNVNHKPSNTKVDKKVEPKSCDKTHTCPPCPAPELLGGPSVFLFPPKPKDTLMISRTPEVTCVVVDVSHEDPEVKFNWYVDGVEVHNAKTKPREEQYNSTYRVVSVLTVLHQDWLNGKEYKCKVSNKALPAPIEKTISKAKGQPREPQVYTLPPPSEELALNELVTLTCLVKGFYPSDIAVEWLQGSQELPREKYLTWAPVLDSDGSFFLYSILRVAAEDWKKGDTFSCSVMHEALHNHYTQKSLDRSPGK
light 2: DIQMTQSPSSLSASVGDRVTITCRASQSIGTNIHWYQQKPGKAPKLLIKYASESISGVPSRFSGSGYGTDFTLTISSLQPEDVATYYCQQNYNWPTTFGQGTKVEIKRTVAAPSVFIFPPSDEQLKSGRASVVCLLNNFYPREAKVQWKVDNALQSGNSQESVTEQDSKDSTYSLSSTLTLSKADYEKHKVYACEVTHQGLSSPVTKSFNRGEC
notes: Only the correctly paired form was detected by LC-ESI-MS; also called mutant BxM MaB40
In the case of B2, the Kd in test [1] was 0.42 nM; in test [2], 2.9 nM.

The record behind these values is US20190352429A1 (published 2019).
